Laboratory results: patent US12729239B2, “Anti-CEACAM5 antibodies and conjugates and uses thereof” (Merck Patent GmbH, priority 2020, dated 2026)

Key:
[1] = test system: MDA-MB-231; assay: Viability assay (Cell Titer-Glo), MDA-MB-231; assay type: cell-based; settings: Homo sapiens, read-out: Maximal effect compared to untreated controls at the highest tested concentration
Method: Cytotoxicity effects of the ADC on the cancer cell lines were measured by cell viability assays. Cells were seeded in a volume of 90 μL in 96-well plates the day before treatment. Test compounds (ADCs or free payloads) were formulated at 10-fold the starting concentration in cell culture medium. Test compounds were serial diluted (1:4) and 10 μL of each dilution was added to the cells in triplicates. Plates were cultured at 37° C. in a CO2 incubator for six days. For cell viability measurement, Cell Titer-Glo® reagent (Promega™ Corp, Madison, WI) was added to each well, and plates processed according to the manufacturer's instructions. Luminescence signals were measured using a Varioskan plate reader (Thermo Fisher). Luminescence readings were converted to % viability relative to untreated cells. Data was fitted with non-linear regression analysis, using log (inhibitor) vs. response, variable slope, 4-parameter fit equation using GraphPad Prism. Data is shown as % relative cell viability vs. molar compound concentration, error bars indicating standard deviation (SD) of triplicates. Geometric mean values of IC50s derived from multiple experiments were calculated.

[2] = in vivo; cited from earlier work
[3] = test system: CEACAM5 from Macaca fascicularis; settings: cited from earlier work
[4] = in vivo; cited from earlier work; remark: listed apart in the source
[5] = target: T1, CEACAM-5 epitope in FFPE tissues/cells (Homo sapiens, UniProt P06731); assay: IHC staining on FFPE cancer cell lines versus CEACAM5 mRNA expression; assay type: binding; settings: 104 cancer cell lines, CCLE dataset
T1 construct: formaldehyde fixed paraffin embedded (FFPE) cancer cell line microarrays (CMAs) and human tumor tissues; endogenous in cells; host or cells: 104 FFPE cancer cell lines (microarray)
T1 sequence (P06731 35-676): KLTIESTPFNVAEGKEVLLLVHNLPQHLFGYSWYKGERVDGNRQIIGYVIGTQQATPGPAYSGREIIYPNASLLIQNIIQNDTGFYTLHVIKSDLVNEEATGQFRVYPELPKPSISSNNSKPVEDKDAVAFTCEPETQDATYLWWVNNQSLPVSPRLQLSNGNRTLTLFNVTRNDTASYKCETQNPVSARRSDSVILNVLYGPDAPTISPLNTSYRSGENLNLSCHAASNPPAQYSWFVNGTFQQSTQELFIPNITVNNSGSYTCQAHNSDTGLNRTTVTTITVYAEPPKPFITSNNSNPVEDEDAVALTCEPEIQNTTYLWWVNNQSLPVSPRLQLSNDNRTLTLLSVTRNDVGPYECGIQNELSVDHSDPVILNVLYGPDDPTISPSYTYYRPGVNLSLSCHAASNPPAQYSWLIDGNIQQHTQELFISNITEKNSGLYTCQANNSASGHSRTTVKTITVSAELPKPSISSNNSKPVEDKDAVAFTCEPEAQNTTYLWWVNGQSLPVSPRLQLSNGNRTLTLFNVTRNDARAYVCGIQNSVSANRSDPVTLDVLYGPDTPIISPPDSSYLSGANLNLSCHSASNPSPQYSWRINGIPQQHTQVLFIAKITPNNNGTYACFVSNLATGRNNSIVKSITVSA
Method: For the IHC staining with the anti-CEACAM-5 antibody rb8G4, sections of 4 μm from formaldehyde fixed paraffin embedded (FFPE) cancer cell line microarrays (CMAs) and human tumor tissues were mounted on charged slides (SuperFrost Ultra Plus, Thermo Fisher Scientific or TOMO, Matsunami). The staining procedure was performed using a Discovery XT (Roche Diagnostics) staining platform. Following deparaffinization, the sections were heated for epitope retrieval in Tris-EDTA buffer pH 8 (CC1, Roche Diagnostics). The sections were incubated with the primary monoclonal antibody rb8G4 diluted to 0.5 or 0.7 μg/ml in phosphate-buffered saline (PBS) or antibody diluent buffer (DCS). The clone DA1E (rabbit monoclonal IgG, NEB) served as isotype control antibody. The primary antibodies were followed by the HQ anti-rabbit IgG detection kit (Roche Diagnostics). […]
CMAs and the TMA with human organ tissue were stained and scanned with the NanoZoomer (Hamamatsu) with a resolution of 0.46 μm/pixel. […] The scans of the CMAs were analyzed with the image analysis software HALO (Indica Labs, USA). For the determination of the amount of antigen present, positive brown stained area was calculated as percent area of the viable tissue area. Staining (arbitrary units) is calculated as Antibody staining (AU)=% positive tissue area*Average optic density (OD ranges from 0 to 1) of the brown colour. […]

Chain of CEACAM5 from Macaca fascicularis (as listed by the source): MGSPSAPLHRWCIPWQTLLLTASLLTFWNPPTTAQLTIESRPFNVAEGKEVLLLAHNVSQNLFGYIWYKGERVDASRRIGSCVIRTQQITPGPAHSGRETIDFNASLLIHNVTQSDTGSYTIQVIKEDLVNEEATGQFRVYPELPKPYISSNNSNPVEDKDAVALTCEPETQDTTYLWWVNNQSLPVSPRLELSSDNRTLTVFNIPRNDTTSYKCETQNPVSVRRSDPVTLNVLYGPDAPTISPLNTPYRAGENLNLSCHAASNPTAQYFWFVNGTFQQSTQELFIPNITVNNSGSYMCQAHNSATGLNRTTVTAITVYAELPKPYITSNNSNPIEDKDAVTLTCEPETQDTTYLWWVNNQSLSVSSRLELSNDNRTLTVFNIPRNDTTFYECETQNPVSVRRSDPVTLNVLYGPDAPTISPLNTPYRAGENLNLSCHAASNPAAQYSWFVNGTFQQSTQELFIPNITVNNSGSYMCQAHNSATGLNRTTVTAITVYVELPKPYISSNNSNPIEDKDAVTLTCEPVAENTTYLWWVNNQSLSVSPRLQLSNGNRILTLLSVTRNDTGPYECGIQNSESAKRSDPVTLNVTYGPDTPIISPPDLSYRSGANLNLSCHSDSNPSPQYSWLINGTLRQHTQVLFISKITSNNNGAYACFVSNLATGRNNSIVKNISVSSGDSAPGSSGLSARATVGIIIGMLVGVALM

## CC[C@@]1(O)C(=O)OCc2c1cc1n(c2=O)Cc2c-1nc1cc(F)c(C)c3c1c2[C@@H](N)CC3 [PAYLOAD, (1S,9S)-1-Amino-9-ethyl-5-fluoro-1,2,3,9,12,15-hexahydro-9-hydroxy-4-methyl-10H,13H-benzo(de)pyrano(3′,4′:6,7)indolizino(1,2-b)quinoline-10,13-dione]
[1]
  Emax: -92%

## SAR408701: Sanofi anti-CEACAM5 ADC: SAR408377 linked to DM4 via SPDB linker
[2]
  side effects: toxic side effects on several organs and tissues including the cornea of the eye

## hmn-14: known anti-CEACAM5 antibody as in labetuzumab govitecan; HC SEQ ID NO: 27, LC SEQ ID NO: 28
[3]
  cross-reactivity with CEACAM5 from Macaca fascicularis: not cross-reacting

## Labetuzumab govitecan
[4]
  stability of the linker structure: significant instability

B1: rb8G4: human/rabbit chimeric variant of mAb1; HC SEQ ID NO: 29, LC SEQ ID NO: 30 (antibody)
heavy: EVQLQESGPGLVKPSQTLSLTCTVSDGSVSRGGYYLTWIRQHPGKGLEWIGYIYYSGSTYFNPSLRSRVTMSVDTSKNQFSLKLSSVTAADTAVYYCARGIAVAPFDYWGQGTLVTVSSQPKAPSVFPLAPCCGDTPSSTVTLGCLVKGYLPEPVTVTWNSGTLTNGVRTFPSVRQSSGLYSLSSVVSVTSSSQPVTCNVAHPATNTKVDKTVAPSTCSKPTCPPPELLGGPSVFIFPPKPKDTLMISRTPEVTCVVVDVSEDDPEVQFTWYINNEQVRTARPPLREQQFNSTIRVVSTLPIAHEDWLRGKEFKCKVHNKALPAPIEKTISKARGQPLEPKVYTMGPPREELSSRSVSLTCMINGFYPSDISVEWEKNGKAEDNYKTTPAVLDSDGSYFLYSKLSVPTSEWQRGDVFTCSVMHEALHNHYTQKSISRSPGK
light: EIVLTQSPATLSVSPGERATLSCRTSQSVRSNLAWYQQKPGQAPRLLIYAASTRATGIPARFSGSGSGTEFTLTISSLQSEDFAVYYCQQYTNWPFTFGPGTKVDIKRDPVAPSVLLFPPSKEELTTGTATIVCVANKFYPSDITVTWKVDGTTQQSGIENSKTPQSPEDNTYSLSSTLSLTSAQYNSHSVYTCEVVQGSASPIVQSFNRGDC
modifications: HC of rb8G4; LC of rb8G4
[5]
  Pearson correlation coefficient of IHC staining signal with mRNA expression: 0.88
